Assay in all cases: two-hybrid library CCNG1;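 further: natural log of median RNA to DNA barcode read ratio; higher means stronger binding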
The target of assay [1] is T1, 4H1449-bN.
T1 chain: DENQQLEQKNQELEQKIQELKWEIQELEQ

Assay [2] concerns the target T2, 4H3172-bN.
T2 chain: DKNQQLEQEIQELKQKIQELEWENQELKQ

Assay [3] addresses T3, 4H850-bN.
T3 chain: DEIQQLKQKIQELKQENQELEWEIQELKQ

For assay [4], the target named is T4, 4H1629-bN.
T4 chain: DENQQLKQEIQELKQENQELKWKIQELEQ

The target of assay [5] is T5, 4H3129-bN.
T5 chain: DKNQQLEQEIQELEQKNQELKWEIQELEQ

Assay [6] deals with T6, 4H850-bA.
T6 chain: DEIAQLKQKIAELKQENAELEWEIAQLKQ

The target in assay [7] is T7, 4H1710-bN.
T7 chain: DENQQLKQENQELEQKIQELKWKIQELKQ

For assay [8], the target named is T8, 4H3631-bN.
T8 chain: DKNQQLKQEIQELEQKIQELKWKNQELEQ

The target in assay [9] is T9, 4H3638-bN.
T9 chain: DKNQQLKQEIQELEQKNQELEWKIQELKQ

Assay [10] addresses T10, 4H1804-bN.
T10 chain: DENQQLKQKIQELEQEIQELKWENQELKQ

Assay [11] addresses T11, 4H584-bN.
T11 chain: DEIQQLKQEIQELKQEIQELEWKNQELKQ

The target of assay [12] is T12, 4H570-bN.
T12 chain: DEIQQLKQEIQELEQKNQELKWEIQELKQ

Assay [13] has as its target T13, 4H3817-bN.
T13 chain: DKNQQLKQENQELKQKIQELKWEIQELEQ

The target of assay [14] is T14, 4H906-bN.
T14 chain: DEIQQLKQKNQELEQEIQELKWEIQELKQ

For assay [15], the target named is T15, 4H1985-bN.
T15 chain: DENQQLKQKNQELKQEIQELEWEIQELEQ

For assay [16], the target named is T16, 4H3414-bN.
T16 chain: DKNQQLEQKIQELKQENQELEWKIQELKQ

Assay [17] concerns the target T17, 4H3974-bN.
T17 chain: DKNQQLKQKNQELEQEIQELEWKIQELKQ

The target in assay [18] is T18, 4H619-bN.
T18 chain: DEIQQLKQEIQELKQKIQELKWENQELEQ

The target of assay [19] is T19, 4H1393-bN.
T19 chain: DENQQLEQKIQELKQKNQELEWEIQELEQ

As for DENQQLEQKIQELKQKNQELEWEIQELEQ [4H1393-bN], the interaction score is -0.996 in assay [1]; -1.92 in [2]; -1.57 in assay [3]; -0.818 in [4]; -0.903 in assay [5]; -0.881 in assay [6]. For the same molecule, the interaction score in assay [7] was -1.7; in [8], -1.03; in assay [9] it was 0.818; in assay [10] it was -0.711; in [11], -2.15; in assay [12] it was -2.48. Further, the interaction score in assay [13] is -1.41; in assay [14], -0.497; in [15], -1.58; in [16], -1.76; in assay [17], -0.815; in assay [18], -0.97. This molecule gave an interaction score in [19] of -1.33.

The values above are taken from article PMC10397247.
